# From patent publication US20200405854A1, “Combination Therapies Comprising Daratumumab, Bortezomib, Thalidomide and Dexamethasone and Their Uses” (Janssen Biotech, Inc., priority 2019, published 2020)
# Like-named read-outs stand apart in the source and are kept apart here.
# What was measured:
# [1] = Solution pH and storage of diluted solution; type: physicochemical
# Excerpt: Prepare the solution for infusion using aseptic technique as follows: • Calculate the dose (mg), total volume (mL) of DARZALEX solution required and the number of DARZALEX vials needed based on patient actual body weight. • Check that the DARZALEX solution is colorless to pale yellow. […] Infusion bags/containers must be made of either polyvinylchloride (PVC), polypropylene (PP), polyethylene (PE) or polyolefin blend (PP+PE). Dilute under appropriate aseptic conditions. Discard any unused portion left in the vial. • Gently invert the bag/container to mix the solution. […] The diluted solution may develop very small, translucent to white proteinaceous particles, as daratumumab is a protein. […] (59° F.−77° F.) and in room light. Diluted solution may be kept at room temperature for a maximum of 15 hours (including infusion time). • If not used immediately, the diluted solution can be stored prior to administration for up to 24 hours at refrigerated conditions 2° C.−8° C. (36° F.−46° F.) and protected from light.
# DARZALEX is supplied as a colorless to pale yellow preservative-free solution for intravenous infusion in single-dose vials. The pH is 5.5.
# NK cells = test: Pharmacodynamics, NK cells; type: in vivo, human; conditions: peripheral whole blood and bone marrow
# Excerpt: NK cells express CD38 and are susceptible to daratumumab mediated cell lysis.
# [2] = Cardiac electrophysiology; conditions: non-clinical or clinical data
# [3] = test system: patients with multiple myeloma; test: Immunogenicity, anti-daratumumab antibodies; type: in vivo, human
# Excerpt: As with all therapeutic proteins, there is the potential for immunogenicity. The detection of antibody formation is highly dependent on the sensitivity and specificity of the assay. Additionally, the observed incidence of antibody (including neutralizing antibody) positivity in an assay may be influenced by several factors including assay methodology, sample handling, timing of sample collection, concomitant medications, and underlying disease. For these reasons, comparison of the incidence of antibodies to daratumumab in the studies described below with the incidence of antibodies in other studies or to other products may be misleading. […] One patient administered DARZALEX as combination therapy, developed transient neutralizing antibodies against daratumumab. However, this assay has limitations in detecting anti-daratumumab antibodies in the presence of high concentrations of daratumumab; therefore, the incidence of antibody development might not have been reliably determined.
# [4] = biological target: T1, CD38 on red blood cells (RBCs) (Homo sapiens, UniProt P28907); test: Indirect Antiglobulin Test (Indirect Coombs test) interference
# T1 construct: endogenous in cells; host or cells: red blood cells (reagent RBCs / donor RBCs in blood-bank testing)
# Excerpt: Daratumumab binds to CD38 on red blood cells (RBCs) and results in a positive Indirect Antiglobulin Test (Indirect Coombs test). Daratumumab-mediated positive indirect antiglobulin test may persist for up to 6 months after the last daratumumab infusion. Daratumumab bound to RBCs masks detection of antibodies to minor antigens in the patient's serum [see References (15)]. The determination of a patient's ABO and Rh blood type are not impacted [see Drug Interactions (7.1)].
# Daratumumab binds to CD38 on RBCs and interferes with compatibility testing, including antibody screening and cross matching. Daratumumab interference mitigation methods include treating reagent RBCs with dithiothreitol (DTT) to disrupt daratumumab binding [see References (15)] or genotyping. Since the Kell blood group system is also sensitive to DTT treatment, K-negative units should be supplied after ruling out or identifying alloantibodies using DTT-treated RBCs.
# [5] = test system: patients with multiple myeloma
# [6] = test system: patients with relapsed or refractory multiple myeloma; test: SIRIUS open-label monotherapy trial, efficacy; type: in vivo, human
# Excerpt: Treatment continued until unacceptable toxicity or disease progression.
# The median patient age was 63.5 years (range: 31 to 84 years), 49% were male and 79% were Caucasian. Patients had received a median of 5 prior lines of therapy. […] Prior therapies included bortezomib (99%), lenalidomide (99%), pomalidomide (63%) and carfilzomib (50%).
# [7] = test system: patients with newly diagnosed multiple myeloma eligible for ASCT; test: CASSIOPEIA, adverse reactions and laboratory abnormalities
# [8] = Clinical pharmacokinetics; type: in vivo, human
# [9] = test system: adult patients with relapsed and refractory multiple myeloma; test: Monotherapy safety, three open-label clinical trials; type: in vivo, human; conditions: Any Grade
# Excerpt: Serious adverse reactions were reported in 51 (33%) patients.
substance,measurement,setting,value
"DARZALEX: immunoglobulin G1 kappa (IgG1κ) human monoclonal antibody against CD38 antigen; HC SEQ ID NO: 9, LC SEQ ID NO: 10",time diluted solution can be stored prior to administration,"[1]; refrigerated 2° C.−8° C., protected from light",up to 24 hours
same,time diluted solution may be kept,"[1]; room temperature, including infusion time",≤ 15 h
same,pH,[1]; solution for intravenous infusion,5.5
same,absolute counts and percentages of total NK cells and activated NK cells,NK cells,Decreases
same,potential to delay ventricular repolarization,[2],no evidence
same,patients tested positive for anti-daratumumab antibodies,[3]; 111 evaluable monotherapy patients,none
same,patients tested positive for anti-daratumumab antibodies,"[3]; of the 1,050 evaluable combination therapy patients",2
same,Indirect Antiglobulin Test (Indirect Coombs test) result,[4],positive
same,persistence of positive indirect antiglobulin test after the last infusion,[4],up to 6 months
same,incidence of any grade infusion reactions,[5]; Week 2 infusion,2%
same,Grade 3/4 infusion reaction,[5]; Week 2 or subsequent infusions,Less than 1%
same,incidence of any grade infusion reactions,"[5]; cumulatively, subsequent infusions",6%
same,incidence of any grade infusion reactions,"[5]; first (16 mg/kg, Week 1) infusion",37%
same,incidence of infusion modification due to reactions,"[5]; human, in vivo",36%
same,Hepatitis B virus reactivation,[5]; including fatal cases,less than 1%
same,time of infusion reactions after completing DARZALEX,"[5]; nearly all reactions, during infusion or within",≤ 4 h
same,time of infusion reactions after infusion,[5]; prior to the introduction of post-infusion medication,up to 48 hours
same,patients who experienced an infusion reaction,[5]; share of all patients in clinical trials,approximately half
same,Overall response rate (ORR),[6]; N = 106,29.2%
same,Partial response (PR),[6]; in vivo,17.0%
same,Stringent complete response (sCR),[6]; in vivo,2.8%
same,Very good partial response (VGPR),[6]; in vivo,9.4%
same,median duration of response,[6]; in vivo,7.4 months
same,median time to response,[6]; in vivo,1 month
same,Complete response (CR),[6]; number of patients,0
same,Overall response rate (ORR),[6]; number of patients,31
same,Partial response (PR),[6]; number of patients,18
same,Stringent complete response (sCR),[6]; number of patients,3
same,Very good partial response (VGPR),[6]; number of patients,10
same,IRRs Grade 3 or 4,[7]; at re-initiation following ASCT,< 1%
same,incidence of IRRs,"[7]; first infusion following ASCT, upon re-initiation",11%
same,"area under the concentration-time curve (AUC), dose dependence",[8]; 1 to 24 mg/kg monotherapy or 1 to 16 mg/kg combination therapy,increases more than proportionally
same,"drug-drug interactions between daratumumab and lenalidomide, pomalidomide, bortezomib and dexamethasone",[8]; clinical pharmacokinetic assessments,no clinically relevant drug-drug interactions
same,terminal half-life compared with monotherapy,[8]; combination therapy,similar
same,volume of distribution,[8]; combination therapy,4.4 ± 1.5 L
same,"trough serum concentration (Cmin), mean±SD","[8]; end of weekly dosing, monotherapy",573 ± 332 µg/mL
same,central volume of distribution and clearance with increasing body weight,"[8]; human, in vivo",increased
same,clearance with increasing dose and with multiple dosing,"[8]; human, in vivo",decreased
same,"linear clearance, mean±SD",[8]; monotherapy,171.4 ± 95.3 mL/day
same,"terminal half-life associated with linear clearance, mean±SD",[8]; monotherapy,18 ± 9 days
same,volume of distribution,[8]; monotherapy,4.7 ± 1.3 L
same,"differences in pharmacokinetics based on sex, age, mild and moderate hepatic impairment, or renal impairment",[8]; monotherapy or combination therapy,No clinically significant differences
same,time to steady state,"[8]; monotherapy, into the every 4-week dosing period (by the 21st infusion)",approximately 5 months
same,"Anemia, laboratory abnormality",[9],45%
same,Arthralgia,[9],17%
same,Back pain,[9],23%
same,Chills,[9],10%
same,Constipation,[9],15%
same,Cough,[9],21%
same,Decreased appetite,[9],15%
same,Diarrhea,[9],16%
same,Dyspnea,[9],15%
same,Fatigue,[9],39%
same,Headache,[9],12%
same,Hypertension,[9],10%
same,Infusion reaction,[9],48%
same,"Lymphopenia, laboratory abnormality",[9],72%
same,Musculoskeletal chest pain,[9],12%
same,Nasal congestion,[9],17%
same,Nasopharyngitis,[9],15%
same,Nausea,[9],27%
same,"Neutropenia, laboratory abnormality",[9],60%
